{
  "source": "paper PMC5118228",
  "about": "(EJNMMI Research, 2016)",
  "tested_on": "kidney",
  "test": "Renal dose-effect relation (logistic regression, LD50)",
  "format": "in vivo, mice",
  "settings": "death before 90 days",
  "protocol": "Dosimetry was performed according to the MIRD schema by using the spherical nodes S-factors from the Olinda/EXM software. S-factors were interpolated from the actual weight of the organs and tissue. All organs and tissue were assumed to be spherical with a density of […]. Mean radiation absorbed doses were obtained as a function-injected mass of peptide, assuming a homogeneous distribution in the tumor and organs. […] Owing to the short path length of α-particles, only the self-dose within each organ was included. The threshold for lethality was determined with renal absorbed dose and injected activity as indicators. Logistic regression analysis was used to determine the LD50 for presumed renal toxicity-related death.\nData analyses, graphs, and calculations were performed in Prism-5. Mann-Whitney t test was used to calculate the significance. The results of statistical tests were considered significant when P was <0.05. Biodistribution data were expressed as mean ± standard deviation (SD) and tumor volume data as mean ± standard error (SEM). Binary logistic analysis (forced entry method) was performed with SPSS software (IBM SPSS statistics, version 20).",
  "note": "“And” between values parts separate entries of the source, which are not always exact repeats. Equal values may be shown once.",
  "data": [
    {"smiles": "C[C@@H](O)[C@H](NC(=O)[C@@H]1CSSC[C@H](NC(=O)[C@@H](Cc2ccccc2)NC(=O)CN2CCN(CC(=O)O)CCN(CC(=O)O)CCN(CC(=O)O)CC2)C(=O)N[C@@H](Cc2ccc(O)cc2)C(=O)N[C@H](Cc2c[nH]c3ccccc23)C(=O)N[C@@H](CCCCN)C(=O)N[C@@H]([C@@H](C)O)C(=O)N1)C(=O)O", "note": "[^213Bi-DOTATATE, metal not drawn]", "values": [
      {"measurement": "threshold LD5 kidney dose", "result": "11 ± 4", "unit": "Gy"},
      {"measurement": "LD50 mean renal radiation absorbed dose", "setting": "mice with and without L-lysine", "result": "20 Gy and 20 ± 8 Gy"}
    ]}
  ]
}
